A short description of data set [1]: physchem. The data set is classed as physicochemical. To be noted: water, pKa. How it is done:
The crude product contained a mixture of folate-deferoxamine conjugates, wherein the folate is linked to DF via its α-carboxyl or γ-carboxyl group as well as unreacted folic acid. The two isomers of DF-folate were isolated and purified on a weak anion-exchange column. Briefly, the product mixture was loaded onto a 1.5 cm×15 cm […] column pre-equilibrated in 10 mM NH4 CO3 buffer (pH 7.9). The column was washed with 50 mL 10 mM NH4 HCO3 and then eluted with a 500 mL gradient of 80-180 mM NH4 HCO3 followed by 150 mL 500 mM NH4 HCO3. Three folate-containing peaks were obtained as detected by UV absorbance at 363 nm. Each peak was collected, lyophilized, and redissolved in deionized water. The purity of each component was confirmed by reverse-phase high pressure liquid chromatography (HPLC) with a 10 mm×250 mm Licrosorb RP-18 column (Altech, Deerfield, Ill.), and evaluation of the conjugates' molecular weights was determined by fast-atom bombardment mass spectroscopy (FAB-MS). The characteristic pKa values of the two DF-folate isomers were obtained by titration on a pH/ion analyzer (Corning, Corning, N.Y.). […] Since the two isoforms of DF-folate conjugate retain either a free γ-carboxyl or free α-carboxyl, they can be distinguished from each other and from unreacted folic acid by their characteristic pKa values, which were determined by titration.

Data set [2] concerns the target T1, KB cell folate-binding protein (Homo sapiens, UniProt P15328).
T1 construct: endogenous in cells; host or cells: KB cells
Kind of data set: Competitive binding assay using [^3 H]folic acid on KB cells. The settings on record: equimolar amount (100 pmoles each), 30 min, 4° C. Here is the method: Cell Culture. KB cells, a human nasopharyngeal epidermal carcinoma cell line that greatly overexpresses the folate binding protein, were cultured continuously as a monolayer at 37° C. in a humidified atmosphere containing 5% CO2 in folate-deficient modified Eagle's medium (FDMEM) (a folate-free modified Eagle's medium supplemented with 10% (v/v) heat-inactivated fetal calf serum as the only source of folate) containing penicillin (50 units/mL), streptomycin (50 μg/mL), and 2 mM L-glutamine. The final folate concentration in the complete FDMEM is the physiological range (~2 nM). 48 h prior to each experiment, the cells were transferred to 35 mm culture dishes at 5×10^5 cells per dish and grown to ~80% confluent.
The affinity of the DF-folate(α) and DF-folate(γ) conjugates for the KB cell folate-binding protein was evaluated in a competitive binding assay using [^3 H]folic acid as the receptor ligand. Briefly, 100 pmoles of [^3 H]folic acid and 100 pmoles of either DF-folate(α) or DF-folate(γ) dissolved in phosphate-buffered saline (PBS) were added to KB cells grown ~80% confluence in 1 mL FDMEM in 35 mm culture dishes. Following a 30 min incubation at 4° C., the cells were washed 3 times with cold PBS. Cell-associated [^3 H] folic acid was then determined by liquid scintillation counting, and the cellular protein content was evaluated by the BCA protein assay.

For data set [3], the system named is KB cells (a human nasopharyngeal cell line). Kind of data set: Uptake of ^125 I-labeled folate-labeled protein by KB cells. It is filed as cell-based. The settings on record: procedure of Example 17.
The test system of data set [4] is KB Tumors. The settings on record: mouse, in vivo, iv.
For data set [5], the system named is KB Tumors. Kind of data set: Biodistribution of ^125 I-RNase-Folate conjugate and ^125 I-RNase control following I.V. administration to athymic mice with KB tumors. To be noted: folate-free diet.

Like-named read-outs stand apart in the source and are kept apart here.

This note sets out measurements from patent US5688488A, “Composition and method for tumor imaging” (priority 1995, dated 1997).

T1 sequence (P15328 25-257): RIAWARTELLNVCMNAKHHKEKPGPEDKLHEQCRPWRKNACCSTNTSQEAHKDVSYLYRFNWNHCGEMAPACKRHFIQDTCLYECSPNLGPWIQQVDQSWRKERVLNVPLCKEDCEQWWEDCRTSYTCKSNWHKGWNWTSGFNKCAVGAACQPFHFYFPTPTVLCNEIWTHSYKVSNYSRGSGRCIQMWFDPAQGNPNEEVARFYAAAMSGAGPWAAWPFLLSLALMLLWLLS

As to `CC(=O)N(O)CCCCCNC(=O)CCC(=O)N(O)CCCCCNC(=O)CCC(=O)N(O)CCCCCNC(=O)[C@H](CCC(=O)O)NC(=O)c1ccc(NCc2cnc3nc(N)[nH]c(=O)c3n2)cc1` [DF-folate(α)], the pKa in data set [1] worked out at 2.5. The “decrease in bound [^3 H]folic acid” value in data set [2] is on record as “no ability to compete”.

As to `CC(=O)N(O)CCCCCNC(=O)CCC(=O)N(O)CCCCCNC(=O)CCC(=O)N(O)CCCCCNC(=O)CC[C@H](NC(=O)c1ccc(NCc2cnc3nc(N)[nH]c(=O)c3n2)cc1)C(=O)O` [DF-folate(γ)], in data set [1], the pKa was 4.5. For the same molecule, the “decrease in bound [^3 H]folic acid” value in data set [2] is given as 50%.

B1: SBTI: soybean trypsin inhibitor, folate-ligated as in Example 17 (conjugate, UniProt P01070 25-205, looked up)
Trypsin inhibitor A: DFVLDNEGNPLENGGTYYILSDITAFGGIRAAPTGNERCPLTVVQSRNELDKGIGTIISSPYRIRFIAEGHPLSLKFDSFAVIMLCVGIPTEWSVVEDLPEGPAVKIGENKDAMDGWFRLERVSDDEFNNYKLVFCPQQAEDDKCGDIGISIDHDDGTRRLVVSKNKPLVVQFQKLDKESL
modifications: folate conjugated
Turning to B1, the “uptake of SBTI by KB cells” value in data set [3] was “Folate ligation was again demonstrated to be essential for uptake”.

B2: ^125 I-RNase-Folate: ^125 I labeled ribonuclease-folate conjugate (conjugate, UniProt P61823 27-150, looked up)
Ribonuclease pancreatic: KETAAAKFERQHMDSSTSAASSSNYCNQMMKSRNLTKDRCKPVNTFVHESLADVQAVCSQKNVACKNGQTNCYQSYSTMSITDCRETGSSKYPNCAYKTTQANKHIIVACEGNPYVPVHFDASV
modifications: 125I label; folate conjugated
Take B2: in data set [4] (1 h), the “Percentage of Injected Dose per Gram: Blood” value (shortened to “Percentage … per Gram: Blood”) was 5.34 ± 1.07 % of injected dose per gram, the “Percentage of Injected Dose per Gram: Bone” value (“Percentage … per Gram: Bone” below) is listed as 3.20 ± 0.23 % of injected dose per gram, the “Percentage of Injected Dose per Gram: Heart” value (“Percentage … per Gram: Heart” for short) is 2.01 ± 0.22 % of injected dose per gram and the “Percentage of Injected Dose per Gram: Intestines” value (shortened to “Percentage … per Gram: Intestines”) was 2.03 ± 0.28 % of injected dose per gram. Further, in data set [4] (1 h), the “Percentage of Injected Dose per Gram: Kidney” value (“Percentage … per Gram: Kidney” for short) is 16.08 ± 2.76 % of injected dose per gram, the “Percentage of Injected Dose per Gram: Liver” value (“Percentage … per Gram: Liver” below) is listed as 9.78 ± 1.11 % of injected dose per gram, the “Percentage of Injected Dose per Gram: Lungs” value (from here on “Percentage … per Gram: Lungs”) was 4.19 ± 0.61 % of injected dose per gram and the “Percentage of Injected Dose per Gram: Muscle” value (shortened to “Percentage … per Gram: Muscle”) is 1.73 ± 0.32 % of injected dose per gram. Further, in data set [4] (1 h), the “Percentage of Injected Dose per Gram: Spleen” value (“Percentage … per Gram: Spleen” for short) is reported as 9.94 ± 1.37 % of injected dose per gram, the “Percentage of Injected Dose per Gram: Stomach” value (“Percentage … per Gram: Stomach” below) is 21.07 ± 2.57 % of injected dose per gram, the “Percentage of Injected Dose per Gram: Testes” value (“Percentage … per Gram: Testes” below) is reported as 1.50 ± 0.18 % of injected dose per gram and the “Percentage of Injected Dose per Gram: Tumor” value is 5.35 ± 0.54 % of injected dose per gram. Besides, in data set [4] (60 min), the Tumor/Blood was found to be 1.02 ± 0.16 and the Tumor/Muscle is 3.14 ± 0.43. Besides, in data set [4] (4 h), the “Percentage … per Gram: Blood” value was 2.30 ± 0.62 % of injected dose per gram, the “Percentage … per Gram: Bone” value was 1.17 ± 0.28 % of injected dose per gram, the “Percentage … per Gram: Heart” value was 0.93 ± 0.39 % of injected dose per gram and the “Percentage … per Gram: Intestines” value was 0.95 ± 0.16 % of injected dose per gram. Besides, in data set [4] (4 h), the “Percentage … per Gram: Kidney” value is reported as 5.11 ± 1.27 % of injected dose per gram, the “Percentage … per Gram: Liver” value is listed as 3.29 ± 0.77 % of injected dose per gram, the “Percentage … per Gram: Lungs” value is recorded as 1.97 ± 0.77 % of injected dose per gram and the “Percentage … per Gram: Muscle” value was 0.98 ± 0.54 % of injected dose per gram. In data set [4] (4 h), the “Percentage … per Gram: Spleen” value is on record as 2.78 ± 0.73 % of injected dose per gram, the “Percentage … per Gram: Stomach” value is on record as 26.45 ± 8.05 % of injected dose per gram and the “Percentage … per Gram: Testes” value is recorded as 1.0 ± 0.15 % of injected dose per gram. In data set [4] (1440 min), this molecule displayed a Tumor/Blood of 11.88 ± 3.71 and a Tumor/Muscle of 32.6 ± 6.7. Besides, in data set [4] (24 h), the “Percentage … per Gram: Blood” value is 0.04 ± 0.01 % of injected dose per gram, the “Percentage … per Gram: Bone” value is on record as 0.09 ± 0.03 % of injected dose per gram, the “Percentage … per Gram: Heart” value was 0.024 ± 0.006 % of injected dose per gram and the “Percentage … per Gram: Intestines” value is given as 0.05 ± 0.006 % of injected dose per gram. In addition, in data set [4] (24 h), the “Percentage … per Gram: Kidney” value is reported as 0.72 ± 0.07 % of injected dose per gram, the “Percentage … per Gram: Liver” value is given as 0.38 ± 0.03 % of injected dose per gram, the “Percentage … per Gram: Lungs” value was 0.04 ± 0.01 % of injected dose per gram and the “Percentage … per Gram: Muscle” value is recorded as 0.013 ± 0.002 % of injected dose per gram. In data set [4] (24 h), the “Percentage … per Gram: Spleen” value is 0.23 ± 0.04 % of injected dose per gram, the “Percentage … per Gram: Stomach” value was 0.26 ± 0.14 % of injected dose per gram, the “Percentage … per Gram: Testes” value is listed as 0.021 ± 0.004 % of injected dose per gram and the “Percentage of Injected Dose per Gram: Tumor” value is recorded as 0.41 ± 0.02 % of injected dose per gram. Also, in data set [5] (1 hour after i.v.), the “Percentage of Injected Dose per Gram: Brain” value (shortened to “Percentage … per Gram: Brain”) is listed as 0.29 ± 0.04 % of injected dose per gram. The “Percentage … per Gram: Brain” value in data set [5] (4 hours after i.v.) is on record as 0.19 ± 0.14 % of injected dose per gram. Further, the “Percentage … per Gram: Brain” value in data set [5] (24 hours after i.v.) is given as 0.007 ± 0.001 % of injected dose per gram.

By pKa is commonly meant the negative logarithm of the acid dissociation constant. Read a high pKa as a group that holds its proton tightly.
